Measured values published in patent US8273855 (JIANGSU NOVAVAC BIO TEC, dated 2012).

What was measured:
Notch2 on OLN-93 cells = target: T1, Notch2 on OLN-93 cells (rat, UniProt Q9QW30 26-2471); assay: OLN-93 cell adhesion to control substrate
T1 construct: whole, on cells; also called OLN cells
Experimental: (§1) This was carried out as previously described (Xiao et al, 1996). Briefly, 35 mm tissue culture petri dishes (Becton Dickinson) were coated with methanol solubilized nitrocellulose (Lagenaur and Lemon, 1987) and air-dried under a sterile hood. […] Subsequently, the dishes were washed three times with calcium- and magnesium-free Hank's balanced salt solution (CMF-HBSS) and blocked overnight with 2% heat-inactivated fatty acid-free BSA (Sigma) in CMF-HBSS (this blocking step is skipped in the repulsion test). […] After 0.5 hour (in the adhesion test) or 12 hours (in the repulsion test), the dishes were gently washed three times with CMF-HBSS and the cells were fixed with 2.5% glutaldehyde in CMF-HBSS. […] Cells adhering to the various spots were photographed and counted. The results were analyzed by Student's t test with p<0.05 and p<0.01 being considered significant or highly significant difference, respectively.

Notch1 on OLN-93 cells = target: T2, Notch1 on OLN-93 cells (rat, UniProt Q07008 19-2531); assay: OLN-93 cell adhesion to control substrate
T2 construct: whole, on cells; OLN-93 cells carry both Notch1 and Notch2; also called OLN cells
Experimental: as §1

[1] = target: T3, Caspr (native, mouse brain) (mouse, UniProt O54991 21-1385); assay: GST pull-down from adult mouse brain membrane extracts
T3 construct: also called mouse Caspr
T3 sequence (looked up): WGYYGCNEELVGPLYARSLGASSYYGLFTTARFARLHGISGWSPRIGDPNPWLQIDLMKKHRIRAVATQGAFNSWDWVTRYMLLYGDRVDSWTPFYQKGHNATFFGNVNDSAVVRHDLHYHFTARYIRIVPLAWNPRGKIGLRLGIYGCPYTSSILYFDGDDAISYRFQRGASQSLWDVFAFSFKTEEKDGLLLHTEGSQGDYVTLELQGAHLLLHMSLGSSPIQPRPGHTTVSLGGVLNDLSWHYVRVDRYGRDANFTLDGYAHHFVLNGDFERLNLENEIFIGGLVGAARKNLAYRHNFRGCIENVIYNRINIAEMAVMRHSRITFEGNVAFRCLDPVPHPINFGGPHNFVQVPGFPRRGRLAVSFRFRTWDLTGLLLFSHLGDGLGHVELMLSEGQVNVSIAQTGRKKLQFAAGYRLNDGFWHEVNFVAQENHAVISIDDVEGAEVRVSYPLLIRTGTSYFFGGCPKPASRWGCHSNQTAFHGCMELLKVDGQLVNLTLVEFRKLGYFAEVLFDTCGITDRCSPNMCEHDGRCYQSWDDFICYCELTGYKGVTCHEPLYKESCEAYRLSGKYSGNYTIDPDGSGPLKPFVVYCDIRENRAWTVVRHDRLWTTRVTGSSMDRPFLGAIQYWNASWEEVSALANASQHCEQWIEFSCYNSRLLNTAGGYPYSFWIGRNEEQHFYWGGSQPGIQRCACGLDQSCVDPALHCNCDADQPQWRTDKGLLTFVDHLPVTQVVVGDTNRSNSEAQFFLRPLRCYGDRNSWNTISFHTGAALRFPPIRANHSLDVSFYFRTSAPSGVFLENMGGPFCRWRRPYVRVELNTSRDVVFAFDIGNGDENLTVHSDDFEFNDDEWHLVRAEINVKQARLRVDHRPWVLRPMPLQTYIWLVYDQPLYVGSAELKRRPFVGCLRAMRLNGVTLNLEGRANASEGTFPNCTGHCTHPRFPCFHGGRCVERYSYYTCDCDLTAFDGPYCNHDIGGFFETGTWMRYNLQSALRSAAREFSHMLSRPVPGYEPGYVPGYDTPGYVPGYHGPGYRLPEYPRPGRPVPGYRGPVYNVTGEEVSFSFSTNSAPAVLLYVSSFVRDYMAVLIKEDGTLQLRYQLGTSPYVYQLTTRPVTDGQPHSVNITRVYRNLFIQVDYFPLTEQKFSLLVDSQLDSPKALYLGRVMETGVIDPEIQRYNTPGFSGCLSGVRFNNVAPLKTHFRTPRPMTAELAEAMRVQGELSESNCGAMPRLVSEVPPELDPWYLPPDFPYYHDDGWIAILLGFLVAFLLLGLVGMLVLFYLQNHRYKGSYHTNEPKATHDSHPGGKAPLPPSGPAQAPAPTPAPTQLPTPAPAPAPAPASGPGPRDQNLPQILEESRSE
Text: (§2) During myelination, the proper segregation of K^+ channels to juxtaparanodes requires an intact paranodal axoglial junction (Vabnick and Shrager, 1998).

[2] = target: T4, Kv1.1 (native, mouse brain extracts) (mouse, UniProt P16388 1-495); assay: as above
T4 construct: also called Kv1.1 K+ channel alpha-subunit
T4 sequence (P16388 whole entry): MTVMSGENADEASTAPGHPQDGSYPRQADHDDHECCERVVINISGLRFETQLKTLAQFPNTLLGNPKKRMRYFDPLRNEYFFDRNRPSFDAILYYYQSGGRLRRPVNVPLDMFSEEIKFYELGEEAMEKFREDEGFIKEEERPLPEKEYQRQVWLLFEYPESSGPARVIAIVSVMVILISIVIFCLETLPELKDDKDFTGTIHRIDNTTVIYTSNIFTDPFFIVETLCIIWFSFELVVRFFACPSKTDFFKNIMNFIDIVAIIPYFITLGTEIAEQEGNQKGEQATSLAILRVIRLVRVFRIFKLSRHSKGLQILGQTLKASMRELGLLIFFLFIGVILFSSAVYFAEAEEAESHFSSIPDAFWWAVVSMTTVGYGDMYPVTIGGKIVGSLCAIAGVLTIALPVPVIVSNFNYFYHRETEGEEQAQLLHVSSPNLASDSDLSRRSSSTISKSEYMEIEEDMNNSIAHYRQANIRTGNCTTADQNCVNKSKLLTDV
Text: as §2

[3] = target: T5, F3 on F3-transfected CHO cells (UniProt P12960 21-1001); assay: cell adhesion assay, F3-CHO cells on coated substrate
T5 construct: whole, on cells; also called F3-CHO; F3-expressing CHO cells
T5 sequence (looked up): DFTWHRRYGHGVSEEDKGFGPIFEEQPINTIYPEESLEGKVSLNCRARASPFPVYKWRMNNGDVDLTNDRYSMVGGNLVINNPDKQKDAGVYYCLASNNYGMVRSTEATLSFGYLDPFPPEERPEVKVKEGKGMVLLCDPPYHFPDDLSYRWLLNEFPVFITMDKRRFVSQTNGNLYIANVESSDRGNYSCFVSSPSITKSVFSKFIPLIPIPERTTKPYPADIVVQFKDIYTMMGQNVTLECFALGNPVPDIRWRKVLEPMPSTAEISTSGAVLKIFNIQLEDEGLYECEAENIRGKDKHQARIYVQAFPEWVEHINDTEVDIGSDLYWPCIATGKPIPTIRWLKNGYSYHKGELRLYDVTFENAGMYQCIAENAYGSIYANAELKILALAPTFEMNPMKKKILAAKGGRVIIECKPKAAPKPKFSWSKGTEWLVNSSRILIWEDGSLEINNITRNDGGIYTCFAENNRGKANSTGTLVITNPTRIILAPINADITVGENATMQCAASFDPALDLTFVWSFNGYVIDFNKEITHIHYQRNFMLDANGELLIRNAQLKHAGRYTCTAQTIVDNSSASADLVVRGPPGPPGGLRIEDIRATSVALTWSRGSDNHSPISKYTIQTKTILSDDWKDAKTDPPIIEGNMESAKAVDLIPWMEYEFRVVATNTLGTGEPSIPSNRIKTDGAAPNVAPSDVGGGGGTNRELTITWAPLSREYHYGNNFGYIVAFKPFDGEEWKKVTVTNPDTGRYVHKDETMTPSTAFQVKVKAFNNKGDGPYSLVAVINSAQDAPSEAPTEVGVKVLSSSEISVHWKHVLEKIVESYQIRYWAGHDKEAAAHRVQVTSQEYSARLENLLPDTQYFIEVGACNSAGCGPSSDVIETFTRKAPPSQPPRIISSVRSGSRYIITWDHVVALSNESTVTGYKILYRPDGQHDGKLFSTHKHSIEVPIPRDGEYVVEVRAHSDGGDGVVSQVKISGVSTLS

T1 sequence (Q9QW30 26-2471): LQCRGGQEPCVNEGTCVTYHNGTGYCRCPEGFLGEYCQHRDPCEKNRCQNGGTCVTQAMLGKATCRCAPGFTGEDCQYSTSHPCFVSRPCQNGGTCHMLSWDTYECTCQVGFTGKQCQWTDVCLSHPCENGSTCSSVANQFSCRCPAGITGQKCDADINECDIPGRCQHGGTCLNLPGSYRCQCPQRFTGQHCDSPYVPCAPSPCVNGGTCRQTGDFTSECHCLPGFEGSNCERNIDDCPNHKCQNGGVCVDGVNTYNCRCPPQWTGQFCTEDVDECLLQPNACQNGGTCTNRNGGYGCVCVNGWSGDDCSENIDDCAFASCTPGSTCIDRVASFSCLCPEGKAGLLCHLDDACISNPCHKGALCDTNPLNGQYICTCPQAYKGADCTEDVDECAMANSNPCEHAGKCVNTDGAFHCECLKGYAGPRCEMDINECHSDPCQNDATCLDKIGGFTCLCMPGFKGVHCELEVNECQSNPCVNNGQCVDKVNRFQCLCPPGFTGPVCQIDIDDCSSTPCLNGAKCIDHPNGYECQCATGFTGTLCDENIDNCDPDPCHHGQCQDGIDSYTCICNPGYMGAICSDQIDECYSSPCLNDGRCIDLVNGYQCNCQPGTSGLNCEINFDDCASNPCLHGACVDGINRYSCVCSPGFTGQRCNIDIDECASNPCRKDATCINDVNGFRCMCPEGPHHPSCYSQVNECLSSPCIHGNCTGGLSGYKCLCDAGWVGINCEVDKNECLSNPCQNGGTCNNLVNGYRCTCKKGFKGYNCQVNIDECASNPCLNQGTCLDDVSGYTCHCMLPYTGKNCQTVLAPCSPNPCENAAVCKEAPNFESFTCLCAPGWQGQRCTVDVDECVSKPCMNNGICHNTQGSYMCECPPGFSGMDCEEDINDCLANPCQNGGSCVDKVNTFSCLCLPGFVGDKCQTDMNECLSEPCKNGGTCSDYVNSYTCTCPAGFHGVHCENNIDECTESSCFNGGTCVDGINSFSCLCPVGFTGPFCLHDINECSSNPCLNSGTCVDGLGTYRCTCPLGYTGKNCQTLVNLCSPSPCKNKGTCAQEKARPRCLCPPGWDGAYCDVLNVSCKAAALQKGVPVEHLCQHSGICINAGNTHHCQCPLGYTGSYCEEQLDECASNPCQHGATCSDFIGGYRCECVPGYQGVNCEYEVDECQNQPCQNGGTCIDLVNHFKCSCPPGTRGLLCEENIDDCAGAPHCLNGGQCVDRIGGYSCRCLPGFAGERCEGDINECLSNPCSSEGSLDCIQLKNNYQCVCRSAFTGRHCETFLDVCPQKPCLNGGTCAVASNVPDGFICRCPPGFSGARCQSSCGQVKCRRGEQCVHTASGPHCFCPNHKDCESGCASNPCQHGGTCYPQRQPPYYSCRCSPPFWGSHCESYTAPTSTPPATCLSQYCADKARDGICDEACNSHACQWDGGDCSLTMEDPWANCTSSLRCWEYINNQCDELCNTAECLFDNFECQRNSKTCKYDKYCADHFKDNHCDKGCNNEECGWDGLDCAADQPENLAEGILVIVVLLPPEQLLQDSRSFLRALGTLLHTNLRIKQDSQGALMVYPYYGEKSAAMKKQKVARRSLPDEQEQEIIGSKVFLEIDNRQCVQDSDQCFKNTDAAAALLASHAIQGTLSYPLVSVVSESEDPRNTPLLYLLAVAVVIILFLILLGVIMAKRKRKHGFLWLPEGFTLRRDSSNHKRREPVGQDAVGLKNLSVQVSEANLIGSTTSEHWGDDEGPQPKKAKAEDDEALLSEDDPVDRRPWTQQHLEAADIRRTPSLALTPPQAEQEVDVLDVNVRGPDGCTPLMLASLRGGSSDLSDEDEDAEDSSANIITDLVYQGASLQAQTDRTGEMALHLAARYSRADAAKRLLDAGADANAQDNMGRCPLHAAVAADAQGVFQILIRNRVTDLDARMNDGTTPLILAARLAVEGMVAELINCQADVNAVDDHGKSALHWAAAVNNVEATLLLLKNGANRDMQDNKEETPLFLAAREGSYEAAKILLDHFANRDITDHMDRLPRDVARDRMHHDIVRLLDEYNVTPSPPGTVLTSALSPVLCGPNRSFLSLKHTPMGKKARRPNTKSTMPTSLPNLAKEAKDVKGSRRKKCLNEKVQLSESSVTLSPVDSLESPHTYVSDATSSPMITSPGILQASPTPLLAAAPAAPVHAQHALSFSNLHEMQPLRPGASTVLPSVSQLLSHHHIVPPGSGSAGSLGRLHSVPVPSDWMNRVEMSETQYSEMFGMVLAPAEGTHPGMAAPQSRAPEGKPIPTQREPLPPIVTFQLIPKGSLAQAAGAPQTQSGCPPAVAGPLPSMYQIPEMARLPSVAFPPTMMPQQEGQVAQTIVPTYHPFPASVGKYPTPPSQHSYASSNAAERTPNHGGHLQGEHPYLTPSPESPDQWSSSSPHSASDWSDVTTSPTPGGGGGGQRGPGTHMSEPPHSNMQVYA

B1: CHL1-Fc (Fc fusion, UniProt P70232 26-1083, looked up)
chain: EIPLSVQQVPTIVKQSYVQVAFPFDEYFQIECEAKGNPEPIFSWTKDDKPFDLSDPRIIAANNSGTFKIPNEGHISHFQGKYRCFASNRLGTAVSEEIEFIVPGVPKFPKEKIEPIDVEEGDSIVLPCNPPKGLPPLHIYWMNIELEHIEQDERVYMSQRGDLYFANVEENDSRNDYCCFAAFPKLRTIVQKMPMKLTVNSSNSIKQRKPKLLLPPAQMGSLSAKTVLKGDTLLLECFAEGLPTPHIQWSKPGSELPEGRATIEVHEKTLKIENISYQDRGNYRCTANNLLGKASHDFHVTVEEPPRWKKKPQSAVYSTGSSGILLCEAEGEPQPTIKWRLNGLPIEKHPFPGDFMFPREISFTNLLPNHTGVYQCEASNIHGTILANANIDVIDVIPLIKTKNEENYATVVGYSAFLHCEYFASPKATVVWEVADETHPLEGDRYHTHENGTLEIYRTTEEDAGSYSCWVDNAMGKAVITANLDIRNATKLRVSPKNPRIPKSHVLELYCESQCDSHLKHSLKLSWSKDGEAFEMNGTEDGRIVIDGAYLTISNITAEDQGVYSCSAQTSLDSTSEKTQVTVLGVPDPPGNLHLSERQNRSVRLSWEAGDDHNSKISEYIVEFEGNREEPGKWEELTRVQGEETDVVLSLAPYVRYQFRVTAVNEVGRSHASLPSDHHETPPAAPDKNPQNIRVQASQPKEMIIKWEPLKSMEQNGPGLEYKVSWKPQGAPEEWEEEIVTNHTLRVMTPTVYAPYDVKVQAINQLGSSPDPQPVTLYSGEDYPSTAPVIQRVDVMNSTLVKVTWSSIPKETVHGLLRGYQINWWKTKSLLDGRTHPKEVNILRFSGQRNSGMVPSLDPFSEFHLTVLAYNSKGAGPESEPYIFQTPEGVPEQPSFLKVIKVDKDTATLSWGLPKKLNGNLTGYLLQYQIINDTYELGELNEINVTTPSKSSWHLSNLNSTTKYKFYLRACTSRGCGKPISEEGATLGEGSKGIRKITEGVNVTQKIHPVEVLVPGAEHIVHLMTKNWGDNDSIFQDVIETRGREYAGLYDDISTQGW
notes: Control substrate; also called CHL-Fc; not shown: human IgG Fc
B1: no binding (tested: 2.5 µl of 12 µM CHL1-Fc spotted) (Notch2 on OLN-93 cells); no binding (tested: 2.5 µl of 12 µM CHL1-Fc spotted) (Notch1 on OLN-93 cells).

B2: GST-Nogo-N (other, human, UniProt Q9NQC3 186-370, looked up)
chain: DETLFALPAASEPVIRSSAENMDLKEQPGNTISAGQEDFPSVLLETAASLPSLSPLSAASFKEHEYLGNLSTVLPTEGTLQENVSEASKEVSEKAKTLLIDRDLTEFSELEYSEMGSSFSVSPKAESAVIVANPREEIIVKNKDEEEKLVSNNILHNQQELPTALTKLVKEDEVVSSEKAKDSFN
notes: domain: cytoplasmic N-terminal domain of Nogo-A (Nogo-N); also called Nogo-N-GST; Nogo-N-terminal-GST; not shown: glutathione S-transferase (GST) encoded by vector pGEX-KG
B2: no binding (tested: 20 µg bead-bound protein) [1]; no binding (tested: 20 µg bead-bound protein) [2]; no binding [3].
